In patent US6610289B2, “Mutated herpes simplex virus type 1 thymidine kinases and uses thereof” (The Board of Trustees of the University of Arkansas, priority 1998, dated 2003):
Read-outs that look alike come from different tables or passages of the source.

Tests used:
HCT-116 cells [1] = assay: Cell cycle analysis of GCV treated cells (propidium iodide flow cytometry); assay type: cell-based, human; conditions: +GCV 25 μM, 24 hours, HCT-116 expressing the TK
Experimental: Parental HCT-116 cells and each HSV-1 TK expressing cell line were grown to 60% confluency in 25 cm^2 flasks and treated for 24 hours minus (−GCV, panels A, C, E and G) or plus (+GCV, panels B, D, F and H) 25 μM GCV. Cells were fixed in 70% ethanol overnight, and later incubated with RNAase (0.1%) and propidium iodide (1 mg/ml) for […] on ice. Flow cytometry measuring propidium iodide fluorescence was done with a Becton-Dickinson FACScalibur instrument using MODFIT computer software. FIGS. 6A and 6B: HCT-116 cells; FIGS. 6C and 6D: wild-type HSV-1 TK cells; FIGS. 6E and 6F: Asn-125TK cells, FIGS. 6G and 6H: Glu-125TK cells.
Parental HCT-116 cells and each HSV-1 TK expressing cell line were grown to 60% confluency in 25 cm^2 flasks and treated for 24 hours plus or minus 25 μM GCV. Following drug incubation, cells were removed by trypsin and total cell numbers determined. Following two phosphate buffered saline rinsing and centrifugation cycles, the cell pellets were resuspended in 1 ml of 70% ethanol and stored at 4° C. until further analysis. Just prior to cell cycle analysis, the ethanol was removed and cell pellets were resuspended in phosphate-buffered saline plus RNAase (0.1%) and propidium iodide (1 mg/ml) for 30 minutes on ice. Flow cytometry measuring propidium iodide fluorescence was done with a Becton-Dickinson FACScalibur instrument. Cell cycle distribution of the cells were determined using MODFIT computer software
GCV has also been previously reported to induce S and G2-M phase cell cycle arrest in HSV-1 TK expressing glioma and melanoma cell lines (36-38). Therefore, the effect of 24 hr GCV treatment on the cell cycling of parental and the three HSV-1 TK-expressing cell lines was examined by flow cytometry of propidium iodide stained cells. As shown in FIGS. 6A and 6B and Table 5, GCV treatment of HCT-116 parental, non-HSV-1 TK-expressing cells had little effect on the percentage of cells in each phase of the cell cycle as compared with untreated cells. In the wild-type and Asn-125TK-expressing cell lines, GCV treatment (FIGS. 6D and 6F) led to an increase in the proportion of cells in the S-phase, and undetectable percentages in G2-M phase when compared to untreated cultures (FIGS. 6C and 6E). For the Glu-125TK-expressing cells, over 50% of the GCV treated cells were in S-phase and less than 3% were in G2-M (FIG. 6H).

HSV-1 TK = assay type: biochemical, herpes simplex virus type 1; conditions: for Decrease in kcat for GCV compared to wild-type enzyme: substrate GCV
Experimental: For determination of Km values of thymidine and GCV for the four enzymes, the filter binding assay was utilized. The basic reaction components were as above, and the following enzyme concentrations, substrate ranges and times were used under linear initial velocity conditions: for [^3H]thymidine: parent Gln-125TK: 0.1 μg TK, 0.1-4 μM, 10 min; Asn-125TK: 0.2 μg TK, 0.25-10 μM, 15 min; Asp-125TK: 4 μg TK, 0.1-2.5 μM, 30 min; Glu-125TK 0.5 μg TK, 0.5-2.5 μM, 15 min. For [^3H]GCV: parent Gln-125TK: 2 μg TK, 5-100 μM, 15 min; Asn-125TK: 0.6 μg TK, 0.5-15 μM, 15 min; Asp-125TK: Not determined; Glu-125TK 4 μg TK, 50-1000 μM, 25 min. Each reaction was done in triplicate. For calculation of kinetic constants, non-linear regression Michaelis-Menten analyses were done using PSI-PLOT version 5.0 (Poly Software International).
Unlike the substrate screening assays presented in Table 1, linear velocity conditions for each enzyme and substrate were established prior to Km determinations.

HCT-116 cells [2] = assay: DAPI-staining of apoptotic cells; assay type: cell-based, human; conditions: 25 μM GCV, 36 or 84 hrs, FIG. 7
Experimental: The HCT-116 cells expressing wild-type HSV-1 TK (FIG. 7A), Asn-125TK (FIG. 7B), or Glu-125TK (FIG. 7C) were grown on chamber slides and incubated with 25 μM GCV for 36 or 84 hours. Control cultures for each cell line without GCV addition (top row) were evaluated after 84 hours. At the indicated time point, cells were fixed in methanol, stained with DAPI, and nuclei visualized by fluorescent microscopy. Each image is magnified 40×.
Parental HCT-116 cells and each HSV-1 TK expressing cell line were plated (5×10^4 cells/well) in 8-well plastic chamber slides (Lab-Tek) and treated plus or minus 25 mM GCV for 36 or 84 hrs. At either time point, cells were washed with phosphate-buffered saline followed by staining in 1 μg/ml DAPI (4′,6′-diamidine-2′-phenylindoledihydrochloride) in 100% methanol at 37° C. for 10 min. After rinsing, the stained cells were visualized with a Zeiss flourescent microscope at 40× magnification with a DAPI-specific filter.

[3] = substrate ganciclovir, read-out: Km ganciclovir
[4] = substrate thymidine, read-out: Km thymidine

Substance	Cell cycle phase G0/G1 (HCT-116 cells [1]) [%]	Cell cycle phase S (HCT-116 cells [1]) [%]	Decrease in kcat for GCV compared to wild-type enzyme (HSV-1 TK) [fold]	kcat ganciclovir (HSV-1 TK; substrate ganciclovir) [s⁻¹]	Km (HSV-1 TK; [3]) [µM]	Change of kcat for thymidine relative to wild-type (in words) (HSV-1 TK; substrate thymidine)	Increase of Km for thymidine relative to wild-type enzyme (HSV-1 TK; substrate thymidine)	kcat thymidine (HSV-1 TK; substrate thymidine) [s⁻¹]	Km (HSV-1 TK; [4]) [µM]	Nuclear morphology of DAPI-stained nuclei after GCV (HCT-116 cells [2])	Cell cycle phase G2/M (HCT-116 cells [1])	Cell cycle phase G2/M (HCT-116 cells [1]; listed as WTGln-125TK) [%]	Decrease in kcat for thymidine relative to wild-type (HSV-1 TK; substrate thymidine) [fold]
Asn-125	70.0	30.0	6	0.08	50	doubled	~20 fold	0.13	20	progressive increases in condensed and fragmented nuclei characteristic of apoptosis			
Gln-125 (WT): wild-type herpes simplex virus type 1 thymidine kinase with glutamine at position 125, parent enzyme [reference compound]	60.1	39.9		0.47	69			0.06	0.9	progressive increases in condensed and fragmented nuclei characteristic of apoptosis	undetectable	0	
Glu-125	39.0		12	0.04	473		approximately 3 fold	0.003	3	fewer swelled nuclei and little evidence of apoptotic nuclei			20
